Earlier results as cited in PMC7017177.

Target: CTLA-4 (Homo sapiens) (UniProt P16410)
Chain of UniProt P16410 (P16410 36-161): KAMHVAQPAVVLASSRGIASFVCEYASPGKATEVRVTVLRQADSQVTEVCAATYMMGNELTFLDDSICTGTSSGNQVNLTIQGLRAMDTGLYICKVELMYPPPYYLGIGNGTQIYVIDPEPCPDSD

- Kd: 0.28 nM
Substance: Tremelimumab
